Assay results taken from the supplement of paper PMC9170038.

Test system: MS2 coat protein
Experiment: apparent KD of MS2 coat protein; designed switch direction (-1 OFF switch, 1 ON switch): -1; higher = weaker reporter binding
Outline: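 Designed RNA switches were transcribed on Illumina chips by stalled E. coli RNA polymerase and titrated with SNAP-549-labelled MS2 coat protein from 0.7 or 1.5 nM, doubling to 3 µM. Step length ran from 0.8–1.5 h at the lowest concentration to 10–20 min at the highest. The apparent KD is the median over clusters for each design, from curve-fitted normalised cluster fluorescence.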

[1] = input ligand: microRNA oligo, concentration not stated
[2] = Eterna round: R95, input ligand: microRNA oligo, concentration not stated
[3] = Eterna round: R95, input ligand: FMN 200 uM
[4] = Eterna round: R95, input ligand: none

Row | Sequence | apparent KD of MS2 coat protein (input ligand: FMN 200 uM) | apparent KD of MS2 coat protein [1] | apparent KD of MS2 coat protein (input ligand: none) | apparent KD of MS2 coat protein [2] | apparent KD of MS2 coat protein [3] | apparent KD of MS2 coat protein [4]
1 | AAUGAUUGACGAGGAUAUUGUGUUAGAUCACGACGAGAAGGCGUCUGUCACAUGAGGAUCACCCAUGUGAGCCUUGUGGAUAGA [Ex NG1 #77] (Eterna round: R96, puzzle: Exclusion NG 1) | 618 nM | 399 nM | 378 nM |  |  | 
2 | CUUCGACAUGAGGAUCACCCAUGUCAGGAUAUUGUGUAUCGGGUUUUUUACGGUAAGGCAAGAAGGGAUGUGUG [LRO-Excl1-08] (puzzle: Exclusion 1) |  |  |  | 29.9 nM |  | 
3 | AAAAAACAAGCUUUUUGAAACAUGAGGAUCACCCAUGUCUUAUAAAAUAAAAAUAAAAAUAAAAAUAAAAUAAAAAA [Sensor V2: 80 Random] (Eterna round: R96, puzzle: Sensor v2, turn-off variant) | 36.2 nM | 67.9 nM | 37.4 nM |  |  | 
4 | UAGGUGUAGUUAGGAUAUCGUUGCGAUUAGCUACGAGAAGGAACACAUGAGGAUCACCCAUGUCUACUCAAGAAACGAAAGGAA [6th something] (Eterna round: R96, puzzle: Exclusion NG 1) | 29 nM | 22.1 nM | 24.9 nM |  |  | 
5 | CUUGUUUAUGUGAGGAUAUACUGUUAGUAAUGUUUGUAGAAGGUACAUGAGGAUCACCCAUGUUUAUUUAUAUU [JR_BME4_Sub043] (puzzle: Brourd's mod of Exclusion 4) |  |  |  | 18.1 nM |  | 
6 | ACAGCUAAUCUGCUCGUCUACAUGAGGAUCACCCAUGUCAUGGUCCACCUAAGAGUCAGUUACCCAAGUGAUAUUCG [Eternabot (L1) Solution 29] (Eterna round: R97, puzzle: Sensor, turn-off variant 1) | 204 nM |  | 224 nM |  |  | 
7 | CAUGGAUGUGAGCCGCAUUACAUGAGGAUCACCCAUGUCAACAAGCUUUUUGCUUGUCUUACGCGGCGACAUCAGAA [Tiquatge] (puzzle: Sensor v3, turn-off variant 1) |  |  |  | 8.33 nM | 11.7 nM | 10.1 nM
8 | GAUUGACAUGAGGAUCACCCAUGUGAGGAUAUCGGCCGGACCUUGUUAGCUUCCAUCGCGAGAAGGCACAUAGG [Exclusion 1 V32] (puzzle: Exclusion 1) |  |  |  | 25.2 nM |  | 
9 | CCAAGCUUAUUCAUUAACCACAUGAGGAUCACCCAUGUAUAGGCAAUUAUGACUGGGCCAUCUGGUGCUCGUCUUAU [Sensor-V1 #29] (Eterna round: R97, puzzle: Sensor, turn-off variant 1) | 16.2 nM |  | 15.2 nM |  |  | 
10 | CCGUCCCGCCCUGGGUGGGACAUGAGGAUCACCCAUGUGGGUUUUCUUUCUUUCACCCGGGCGGGCGGGCGGGCUGG [sensor,turn-off variant1(1)] (Eterna round: R97, puzzle: Sensor, turn-off variant 1) | 20.4 nM |  | 54.8 nM |  |  | 
11 | AGAUCACAUGAGGAUCACCCAUGUCAGGAUAUCGUCACUGGAGCUGCGGCUCCAGUGACGAGAAGGGACAUAAU [E1/2-A3] (Eterna round: R97, puzzle: Exclusion 1) | 252 nM |  | 326 nM |  |  | 
12 | GAUUAUGCGAGCUUUAGGGACAUGAGGAUCACCCAUGUUCGUCUUAUUAAUCUAGGUGCACUAACAUACCUAAAUCU [JMF 32] (puzzle: Sensor v3, turn-off variant 1) |  |  |  | 39.4 nM | 21.9 nM | 21.7 nM
13 | AAAUACAAGUAAAGAUCCUACAUGAGGAUCACCCAUGUGCUCGUCUUAUAAAGUACUAUCACGAAAGUGAUAGUACA [Sensor 3, v1 - 20] (puzzle: Sensor v3, turn-off variant 1) |  |  |  | 13.9 nM | 88.6 nM | 112 nM
14 | GCAGCAACUCUAAUCAAUCCAACAUGAGGAUCACCCAUGUCUCAGGAUAUGGUCUGGAUUACAGGCCAGAAGGGAGAAAGCUGC [Eli exng3 - 046] (Eterna round: R96, puzzle: Exclusion NG 3) | 9.07 nM | 7.62 nM | 11.9 nM |  |  | 
